Experiment [1] has as its target LSR alpha subunit (68 kDa) (rat) (UniProt Q9WU74). The experiment is described as follows: ultracentrifugation assay, in vitro translated labeled subunit with LDL, with against without oleate.
For experiment [2], the target named is LSR beta subunit (56 kDa) (rat) (UniProt Q9WU74). The description is as above.
Sequence of LSR beta subunit (56 kDa) (rat) (Q9WU74 other isoform, or with tags, fused parts or gaps limits assumed): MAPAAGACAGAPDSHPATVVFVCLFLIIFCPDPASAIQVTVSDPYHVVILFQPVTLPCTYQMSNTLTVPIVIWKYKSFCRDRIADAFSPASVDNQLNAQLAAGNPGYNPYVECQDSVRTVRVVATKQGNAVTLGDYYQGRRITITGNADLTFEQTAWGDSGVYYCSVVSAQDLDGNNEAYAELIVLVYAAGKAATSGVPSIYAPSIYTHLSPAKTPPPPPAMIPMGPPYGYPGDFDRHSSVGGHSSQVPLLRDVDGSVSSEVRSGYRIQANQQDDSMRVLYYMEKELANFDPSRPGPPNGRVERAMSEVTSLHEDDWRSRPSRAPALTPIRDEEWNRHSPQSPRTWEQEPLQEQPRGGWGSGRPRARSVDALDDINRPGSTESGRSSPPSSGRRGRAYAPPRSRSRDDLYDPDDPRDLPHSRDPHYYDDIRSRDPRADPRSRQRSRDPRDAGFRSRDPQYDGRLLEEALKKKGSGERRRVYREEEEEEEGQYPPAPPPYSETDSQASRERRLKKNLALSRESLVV

Sequence of LSR alpha subunit (68 kDa) (rat) (Q9WU74 whole entry): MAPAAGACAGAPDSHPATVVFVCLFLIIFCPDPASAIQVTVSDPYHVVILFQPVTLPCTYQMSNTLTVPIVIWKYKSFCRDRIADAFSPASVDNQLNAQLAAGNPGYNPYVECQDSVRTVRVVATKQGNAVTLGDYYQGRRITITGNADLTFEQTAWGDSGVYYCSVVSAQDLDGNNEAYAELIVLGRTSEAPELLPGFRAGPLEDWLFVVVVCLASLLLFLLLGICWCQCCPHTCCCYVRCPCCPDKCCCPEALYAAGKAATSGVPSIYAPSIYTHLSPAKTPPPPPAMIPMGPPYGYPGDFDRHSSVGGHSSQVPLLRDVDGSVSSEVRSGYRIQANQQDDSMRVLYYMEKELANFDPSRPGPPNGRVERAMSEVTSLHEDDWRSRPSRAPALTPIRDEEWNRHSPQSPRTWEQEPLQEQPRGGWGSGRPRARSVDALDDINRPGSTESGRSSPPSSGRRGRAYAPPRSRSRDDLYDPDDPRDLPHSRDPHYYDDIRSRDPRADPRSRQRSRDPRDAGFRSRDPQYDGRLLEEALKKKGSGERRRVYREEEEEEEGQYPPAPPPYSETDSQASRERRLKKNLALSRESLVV

Take LDL (low density lipoprotein) (ligand): the fold enhancement of binding in the presence of oleate is 2 fold in experiment [1] and 5 fold in experiment [2].

For the origin of these results see patent US20020151498A1.
